Laboratory results published in patent US20150344570A1 (published 2015).

Assays:
[1] = biological target: T1, FcγRIIIa (human, UniProt P08637 17-208); test: ratio of SPR KDs: KD of GpH7-TA7/GpH7-B78/GpL16-k0 divided by KD of this antibody
T1 construct: extracellular domain; also called FcgRIIIa; CD16A; not shown: His tag attached to the C terminus
Source text: First, it was considered which H chain should be introduced with Y296W. GpH7-TA52 (SEQ ID NO: 44) resulting from the introduction of the mutation Y296W into GpH7-TA7 was constructed, and expressed and prepared in combination with GpH7-B78 according to the method described in Reference Example 1. Furthermore, GpH7-TA58 (SEQ ID NO: 45) resulting from the introduction of Y296W into GpH7-B78 was constructed, and expressed and prepared in combination with GpH7-TA22 according to the method described in Reference Example 1. To assess the effects of combinations with Y296W, the prepared antibodies were compared for the FcγRIIIa-binding activity according to the method described in Reference Example 2 (Table 16).
(§1) Analysis of interaction between objective antibody and the FcγR was carried out using Biacore T100 (GE Healthcare). HBS-EP+ (GE Healthcare) was used as the running buffer, and the measurement temperature was set to 25° C. Chips produced by immobilizing the antigen peptide by the amine coupling method to a Series S Sencor Chip CM5 (GE Healthcare), or alternatively, chips produced by allowing preliminarily biotinylated antigen peptides to interact with and immobilize onto a Series S Sensor Chip SA (certified) (GE Healthcare) were used. Antibodies of interest were captured onto an antigen peptide-immobilized chip, and allowed to interact to each FcγR diluted with running buffer. To regenerate and repeatedly use the chip, the antibodies captured on the chip were washed off by reacting 10 mM glycine-HCl, pH 1.5.
T1 sequence (P08637 17-208): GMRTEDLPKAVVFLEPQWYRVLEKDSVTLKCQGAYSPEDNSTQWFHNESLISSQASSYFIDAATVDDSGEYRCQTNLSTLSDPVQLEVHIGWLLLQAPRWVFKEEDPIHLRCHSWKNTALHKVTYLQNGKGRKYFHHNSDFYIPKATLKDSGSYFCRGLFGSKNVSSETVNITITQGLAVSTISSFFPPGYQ

[2] = biological target: T1, FcγRIIIa; test: ratio of SPR KDs: KD of GpH7-A5/GpH7-B3/GpL16-k0 divided by KD of this antibody
Description: (§2) The prepared antibodies were compared for the FcγRIIIa-binding activity using, as an indicator, KD for FcγRIIIa that was determined according to the method described in Reference Example 2.
as §1
(§3) Specifically, to calculate association rate constant ka (L/mol/s) and dissociation rate constant kd (1/s), sensorgrams obtained by measurement were processed for global fitting by Biacore Evaluation Software using 1:1 Langmuir binding model and dissociation constant KD (mol/1) was calculated from the resulting values.

[3] = biological target: T1, FcγRIIIa; test: ratio of SPR KDs: KD of GpH7-TA7/GpH7-B78/GpL16-k0 divided by KD of this antibody; remark: listed apart in the source
Description: as §1, §3

[4] = biological target: T1, FcγRIIIa; test: ratio of SPR KDs: KD of GpH7-G1d/GpL16-k0 divided by KD of this antibody
Description: as §2, §1, §3

[5] = biological target: T1, FcγRIIIa; test: ratio of SPR KDs: KD of GpH7-TA22/GpH7-B78/GpL16-k0 divided by KD of this antibody
Source text: Then, GpH7-TA54 (SEQ ID NO: 46) resulting from the introduction of Y296W into GpH7-TA22 was constructed, and expressed and prepared in combination with GpH7-B78 according to the method described in Reference Example 1. Furthermore, GpH7-TA58 (SEQ ID NO: 45) resulting from the introduction of Y296W into GpH7-B78 was constructed, and expressed and prepared in combination with GpH7-TA22 according to the method described in Reference Example 1. To assess the effect of combination with Y296W, the prepared antibodies were compared for the FcγRIIIa-binding activity according to the method described in Reference Example 2 (Table 17).
as §1

[6] = biological target: T2, FcγRIIIa (human, UniProt P08637 17-208); test: SPR (Biacore); KD of GpH7-TA7/GpH7-B78/GpL16-k0 for FcγRIIIa divided by the KD of this antibody
T2 construct: extracellular domain; Soluble extracellular domain with a C-terminal His tag, expressed in FreeStyle293 cells and used as the analyte in Biacore; also called FcgRIIIa; CD16A; not shown: His tag attached to the C terminus
Description: Then, K334G was also assessed in the same manner. GpH7-TA40 (SEQ ID NO: 47) resulting from the introduction of K334G into GpH7-TA7 was constructed, and expressed and prepared in combination with GpH7-B78 according to the method described in Reference Example 1. Furthermore, GpH7-TA50 (SEQ ID NO: 48) resulting from the introduction of K334G into GpH7-B78 was constructed, and expressed and prepared in combination with GpH7-TA7 according to the method described in Reference Example 1. To assess the effect of combinations with K334G, the prepared antibodies were compared for the FcγRIIIa binding according to the method described in Reference Example 2 (Table 18).
as §1, with “To regenerate and repeatedly use the chip, the antibodies captured on the chip were washed off by reacting 10 mM glycine-HCl, pH 1.5.” left out
T2 sequence (P08637 17-208): as above

KD ratio [1] [fold]	KD ratio 2 [2] [fold]	KD ratio [3] [fold]	KD ratio 1 [4] [fold]	KD ratio [5] [fold]	KD ratio [6]	Binder
1	347	1	261			GpH7-TA7/GpH7-B78/GpL16-k0 (antibody, human IgG1, kappa, Anti-glypican-3 IgG1 heterodimer; L234Y/G236W/S298A in H1, S239D/A330L/I332E in H2) heavy 1: QVQLVQSGAEVKKPGASVTVSCKASGYTFTDYEMHWIRQPPGEGLEWIGAIDPKTGDTAYSESFQDRVTLTADKSTSTAYMELSSLTSEDTAVYYCTRFYSYTYWGQGTLVTVSSASTKGPSVFPLAPSSKSTSGGTAALGCLVKDYFPEPVTVSWNSGALTSGVHTFPAVLQSSGLYSLSSVVTVPSSSLGTQTYICNVNHKPSNTKVDKKVEPKSCDKTHTCPPCPAPEYLWGPSVFLFPPKPKDTLMISRTPEVTCVVVDVSHEDPEVKFNWYVDGVEVHNAKTKPREEQYNATYRVVSVLTVLHQDWLNGKEYKCKVSNKALPAPIEKTISKAKGQPREPQVYTLPPSRKELTKNQVSLTCLVKGFYPSDIAVEWESNGQPENNYKTTPPVLDSDGSFFLYSKLTVDKSRWQQGNVFSCSVMHEALHNRYTQKSLSLSP heavy 2: QVQLVQSGAEVKKPGASVTVSCKASGYTFTDYEMHWIRQPPGEGLEWIGAIDPKTGDTAYSESFQDRVTLTADKSTSTAYMELSSLTSEDTAVYYCTRFYSYTYWGQGTLVTVSSASTKGPSVFPLAPSSKSTSGGTAALGCLVKDYFPEPVTVSWNSGALTSGVHTFPAVLQSSGLYSLSSVVTVPSSSLGTQTYICNVNHKPSNTKVDKKVEPKSCDKTHTCPPCPAPELLGGPDVFLFPPKPKDTLMISRTPEVTCVVVDVSHEDPEVKFNWYVDGVEVHNAKTKPREEQYNSTYRVVSVLTVLHQDWLNGKEYKCKVSNKALPLPEEKTISKAKGQPREPQVYTLPPSRDELTKNQVSLTCLVKGFYPSDIAVEWESNGQPENNYKTTPPVLDSDGSFFLYSKLTVDKSRWQQGNVFSCSVMHEALHNHYTQESLSLSP light: DIVMTQSPLSLPVTPGEPASISCQASESLVHSNRNTYLHWYLQKPGQSPQLLIYKVSNRFSGVPDRFSGSGSGTDFTLKISRVEAEDVGVYYCSQNTHVPPTFGQGTKVEIERTVAAPSVFIFPPSDEQLKSGTASVVCLLNNFYPREAKVQWKVDNALQSGNSQESVTEQDSKDSTYSLSSTLTLSKADYEKHKVYACEVTHQGLSSPVTKSFNRGEC
		3.2		1		GpH7-TA22/GpH7-B78/GpL16-k0 (antibody, human IgG1, kappa, Anti-glypican-3 IgG1 heterodimer; L234Y/G236W/S239D/S298A in H1, S239D/A330L/I332E in H2) heavy 1: QVQLVQSGAEVKKPGASVTVSCKASGYTFTDYEMHWIRQPPGEGLEWIGAIDPKTGDTAYSESFQDRVTLTADKSTSTAYMELSSLTSEDTAVYYCTRFYSYTYWGQGTLVTVSSASTKGPSVFPLAPSSKSTSGGTAALGCLVKDYFPEPVTVSWNSGALTSGVHTFPAVLQSSGLYSLSSVVTVPSSSLGTQTYICNVNHKPSNTKVDKKVEPKSCDKTHTCPPCPAPEYLWGPDVFLFPPKPKDTLMISRTPEVTCVVVDVSHEDPEVKFNWYVDGVEVHNAKTKPREEQYNATYRVVSVLTVLHQDWLNGKEYKCKVSNKALPAPIEKTISKAKGQPREPQVYTLPPSRKELTKNQVSLTCLVKGFYPSDIAVEWESNGQPENNYKTTPPVLDSDGSFFLYSKLTVDKSRWQQGNVFSCSVMHEALHNRYTQKSLSLSP heavy 2: QVQLVQSGAEVKKPGASVTVSCKASGYTFTDYEMHWIRQPPGEGLEWIGAIDPKTGDTAYSESFQDRVTLTADKSTSTAYMELSSLTSEDTAVYYCTRFYSYTYWGQGTLVTVSSASTKGPSVFPLAPSSKSTSGGTAALGCLVKDYFPEPVTVSWNSGALTSGVHTFPAVLQSSGLYSLSSVVTVPSSSLGTQTYICNVNHKPSNTKVDKKVEPKSCDKTHTCPPCPAPELLGGPDVFLFPPKPKDTLMISRTPEVTCVVVDVSHEDPEVKFNWYVDGVEVHNAKTKPREEQYNSTYRVVSVLTVLHQDWLNGKEYKCKVSNKALPLPEEKTISKAKGQPREPQVYTLPPSRDELTKNQVSLTCLVKGFYPSDIAVEWESNGQPENNYKTTPPVLDSDGSFFLYSKLTVDKSRWQQGNVFSCSVMHEALHNHYTQESLSLSP light: DIVMTQSPLSLPVTPGEPASISCQASESLVHSNRNTYLHWYLQKPGQSPQLLIYKVSNRFSGVPDRFSGSGSGTDFTLKISRVEAEDVGVYYCSQNTHVPPTFGQGTKVEIERTVAAPSVFIFPPSDEQLKSGTASVVCLLNNFYPREAKVQWKVDNALQSGNSQESVTEQDSKDSTYSLSSTLTLSKADYEKHKVYACEVTHQGLSSPVTKSFNRGEC
					1.2	GpH7-TA7/GpH7-TA50/GpL16-k0 (antibody, human IgG1, kappa, Heterodimerized anti-glypican-3 IgG1 antibody; K334G is in the H chain other than the one with L234Y/G236W/S298A; also called TA7/TA50) heavy 1: QVQLVQSGAEVKKPGASVTVSCKASGYTFTDYEMHWIRQPPGEGLEWIGAIDPKTGDTAYSESFQDRVTLTADKSTSTAYMELSSLTSEDTAVYYCTRFYSYTYWGQGTLVTVSSASTKGPSVFPLAPSSKSTSGGTAALGCLVKDYFPEPVTVSWNSGALTSGVHTFPAVLQSSGLYSLSSVVTVPSSSLGTQTYICNVNHKPSNTKVDKKVEPKSCDKTHTCPPCPAPEYLWGPSVFLFPPKPKDTLMISRTPEVTCVVVDVSHEDPEVKFNWYVDGVEVHNAKTKPREEQYNATYRVVSVLTVLHQDWLNGKEYKCKVSNKALPAPIEKTISKAKGQPREPQVYTLPPSRKELTKNQVSLTCLVKGFYPSDIAVEWESNGQPENNYKTTPPVLDSDGSFFLYSKLTVDKSRWQQGNVFSCSVMHEALHNRYTQKSLSLSP heavy 2: QVQLVQSGAEVKKPGASVTVSCKASGYTFTDYEMHWIRQPPGEGLEWIGAIDPKTGDTAYSESFQDRVTLTADKSTSTAYMELSSLTSEDTAVYYCTRFYSYTYWGQGTLVTVSSASTKGPSVFPLAPSSKSTSGGTAALGCLVKDYFPEPVTVSWNSGALTSGVHTFPAVLQSSGLYSLSSVVTVPSSSLGTQTYICNVNHKPSNTKVDKKVEPKSCDKTHTCPPCPAPELLGGPDVFLFPPKPKDTLMISRTPEVTCVVVDVSHEDPEVKFNWYVDGVEVHNAKTKPREEQYNSTYRVVSVLTVLHQDWLNGKEYKCKVSNKALPLPEEGTISKAKGQPREPQVYTLPPSRDELTKNQVSLTCLVKGFYPSDIAVEWESNGQPENNYKTTPPVLDSDGSFFLYSKLTVDKSRWQQGNVFSCSVMHEALHNHYTQESLSLSP light: DIVMTQSPLSLPVTPGEPASISCQASESLVHSNRNTYLHWYLQKPGQSPQLLIYKVSNRFSGVPDRFSGSGSGTDFTLKISRVEAEDVGVYYCSQNTHVPPTFGQGTKVEIERTVAAPSVFIFPPSDEQLKSGTASVVCLLNNFYPREAKVQWKVDNALQSGNSQESVTEQDSKDSTYSLSSTLTLSKADYEKHKVYACEVTHQGLSSPVTKSFNRGEC
